Reference: the supplement of paper PMC11316812
± gives the standard deviation of the averaged measurements.

Legend:
hTERT-HMEC = test: percentage of EdU-negative (G0-arrested) nuclei per well, 72 h; higher = more G0 arrest; conditions: reference: sequence is the full UniProt precursor, the tested protein was the secreted form or ectodomain
MCF7 = test: as above; conditions: reference: sequence is the full UniProt precursor, the tested protein was the secreted form or ectodomain
[1] = protein concentration 0.0225 µM
[2] = protein concentration 0.0165714 µM
[3] = protein concentration 0.165714 µM
[4] = protein concentration 0.0147125 µM
[5] = protein concentration 0.147125 µM
[6] = protein concentration 0.03125 µM
[7] = protein concentration 0.3125 µM
[8] = protein concentration 0.0125 µM
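Note: secreted proteins added to cultured cells, EdU pulse at the end, nuclei found by Hoechst imaging, EdU status from nuclear versus surrounding ring intensity ratio, PBS as neutral control.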

MQPPRERLVVTGRAGWMGMGRGAGRSALGFWPTLAFLLCSFPAATSPCKILKCNSEFWSATSGSHAPASDDTPEFCAALRSYALCTRRTARTCRGDLAYHSAVHGIEDLMSQHNCSKDGPTSQPRLRTLPPAGDSQERSDSPEICHYEKSFHKHSATPNYTHCGLFGDPHLRTFTDRFQTCKVQGAWPLIDNNYLNVQVTNTPVLPGSAATATSKLTIIFKNFQECVDQKVYQAEMDELPAAFVDGSKNGGDKHGANSLKITEKVSGQHVEIQAKYIGTTIVVRQVGRYLTFAVRMPEEVVNAVEDWDSQGLYLCLRGCPLNQQIDFQAFHTNAEGTGARRLAAASPAPTAPETFPYETAVAKCKEKLPVEDLYYQACVFDLLTTGDVNFTLAAYYALEDVKMLHSNKDKLHLYERTRDLPGRAAAGLPLAPRPLLGALVPLLALLPVFC [Q96B86]
percentage of EdU-negative (hTERT-HMEC; [1]): 5.15 ± 0.82%
percentage of EdU-negative (hTERT-HMEC; protein concentration 0.225 µM): 6.53 ± 1.7%
percentage of EdU-negative (MCF7; [1]): 25.3 ± 1.1%
percentage of EdU-negative (MCF7; protein concentration 0.225 µM): 26.4 ± 2%

MGPLSAPPCTQRITWKGLLLTALLLNFWNLPTTAQVTIEAEPTKVSKGKDVLLLVHNLPQNLAGYIWYKGQMKDLYHYITSYVVDGQIIIYGPAYSGRETVYSNASLLIQNVTREDAGSYTLHIVKRGDGTRGETGHFTFTLYLETPKPSISSSNLYPREDMEAVSLTCDPETPDASYLWWMNGQSLPMTHSLQLSKNKRTLFLFGVTKYTAGPYECEIRNPVSASRSDPVTLNLLPKLPKPYITINNLNPRENKDVLAFTCEPKSENYTYIWWLNGQSLPVSPRVKRPIENRILILPSVTRNETGPYQCEIQDRYGGIRSYPVTLNVLYGPDLPRIYPSFTYYHSGENLYLSCFADSNPPAEYSWTINGKFQLSGQKLFIPQITTKHSGLYACSVRNSATGMESSKSMTVKVSAPSGTGHLPGLNPL
percentage of EdU-negative (hTERT-HMEC; [2]): 4.85 ± 0.26%
percentage of EdU-negative (hTERT-HMEC; [3]): 5.01 ± 0.47%
percentage of EdU-negative (MCF7; [2]): 24.4 ± 1.2%
percentage of EdU-negative (MCF7; [3]): 24.3 ± 0.28%

MDTPRVLLSAVFLISFLWDLPGFQQASISSSSSSAELGSTKGMRSRKEGKMQRAPRDSDAGREGQEPQPRPQDEPRAQQPRAQEPPGRGPRVVPHEYMLSIYRTYSIAEKLGINASFFQSSKSANTITSFVDRGLDDLSHTPLRRQKYLFDVSMLSDKEELVGAELRLFRQAPSAPWGPPAGPLHVQLFPCLSPLLLDARTLDPQGAPPAGWEVFDVWQGLRHQPWKQLCLELRAAWGELDAGEAEARARGPQQPPPPDLRSLGFGRRVRPPQERALLVVFTRSQRKNLFAEMREQLGSAEAAGPGAGAEGSWPPPSGAPDARPWLPSPGRRRRRTAFASRHGKRHGKKSRLRCSKKPLHVNFKELGWDDWIIAPLEYEAYHCEGVCDFPLRSHLEPTNHAIIQTLMNSMDPGSTPPSCCVPTKLTPISILYIDAGNNVVYKQYEDMVVESCGCR [Q6KF10]
percentage of EdU-negative (hTERT-HMEC; [4]): 4.28 ± 0.073%
percentage of EdU-negative (hTERT-HMEC; [5]): 5.35 ± 0.57%
percentage of EdU-negative (MCF7; [4]): 25.3 ± 1.3%
percentage of EdU-negative (MCF7; [5]): 28.7 ± 2.5%

MTSSLQRPWRVPWLPWTILLVSTAAASQNQERLCAFKDPYQQDLGIGESRISHENGTILCSKGSTCYGLWEKSKGDINLVKQGCWSHIGDPQECHYEECVVTTTPPSIQNGTYRFCCCSTDLCNVNFTENFPPPDTTPLSPPHSFNRDETIIIALASVSVLAVLIVALCFGYRMLTGDRKQGLHSMNMMEAAASEPSLDLDNLKLLELIGRGRYGAVYKGSLDERPVAVKVFSFANRQNFINEKNIYRVPLMEHDNIARFIVGDERVTADGRMEYLLVMEYYPNGSLCKYLSLHTSDWVSSCRLAHSVTRGLAYLHTELPRGDHYKPAISHRDLNSRNVLVKNDGTCVISDFGLSMRLTGNRLVRPGEEDNAAISEVGTIRYMAPEVLEGAVNLRDCESALKQVDMYALGLIYWEIFMRCTDLFPGESVPEYQMAFQTEVGNHPTFEDMQVLVSREKQRPKFPEAWKENSLAVRSLKETIEDCWDQDAEARLTAQCAEERMAELMMIWERNKSVSPTVNPMSTAMQNERNLSHNRRVPKIGPYPDYSSSSYIEDSIHHTDSIVKNISSEHSMSSTPLTIGEKNRNSINYERQQAQARIPSPETSVTSLSTNTTTTNTTGLTPSTGMTTISEMPYPDETNLHTTNVAQSIGPTPVCLQLTEEDLETNKLDPKEVDKNLKESSDENLMEHSLKQFSGPDPLSSTSSSLLYPLIKLAVEATGQQDFTQTANGQACLIPDVLPTQIYPLPKQQNLPKRPTSLPLNTKNSTKEPRLKFGSKHKSNLKQVETGVAKMNTINAAEPHVVTVTMNGVAGRNHSVNSHAATTQYANGTVLSGQTTNIVTHRAQEMLQNQFIGEDTRLNINSSPDEHEPLLRREQQAGHDEGVLDRLVDRRERPLEGGRTNSNNNNSNPCSEQDVLAQGVPSTAADPGPSKPRRAQRPNSLDLSATNVLDGSSIQIGESTQDGKSGSGEKIKKRVKTPYSLKRWRPSTWVISTESLDCEVNNNGSNRAVHSKSSTAVYLAEGGTATTMVSKDIGMNCL
percentage of EdU-negative (hTERT-HMEC; [6]): 4.72 ± 0.9%
percentage of EdU-negative (hTERT-HMEC; [7]): 6.26 ± 1.5%
percentage of EdU-negative (MCF7; [6]): 26.3 ± 0.7%
percentage of EdU-negative (MCF7; [7]): 24 ± 3.6%

MRRLLIPLALWLGAVGVGVAELTEAQRRGLQVALEEFHKHPPVQWAFQETSVESAVDTPFPAGIFVRLEFKLQQTSCRKRDWKKPECKVRPNGRKRKCLACIKLGSEDKVLGRLVHCPIETQVLREAEEHQETQCLRVQRAGEDPHSFYFPGQFAFSKALPRS
percentage of EdU-negative (hTERT-HMEC; [1]): 4.71 ± 0.87%
percentage of EdU-negative (hTERT-HMEC; protein concentration 0.225 µM): 5.88 ± 0.56%
percentage of EdU-negative (MCF7; [1]): 27.7 ± 0.92%
percentage of EdU-negative (MCF7; protein concentration 0.225 µM): 26.6 ± 2.6%

MVLLLLVAIPLLVHSSRGPAHYEMLGRCRMVCDPHGPRGPGPDGAPASVPPFPPGAKGEVGRRGKAGLRGPPGPPGPRGPPGEPGRPGPPGPPGPGPGGVAPAAGYVPRIAFYAGLRRPHEGYEVLRFDDVVTNVGNAYEAASGKFTCPMPGVYFFAYHVLMRGGDGTSMWADLMKNGQVRASAIAQDADQNYDYASNSVILHLDVGDEVFIKLDGGKVHGGNTNKYSTFSGFIIYPD [Q86Z23]
percentage of EdU-negative (hTERT-HMEC; [8]): 4.79 ± 0.17%
percentage of EdU-negative (hTERT-HMEC; protein concentration 0.125 µM): 6.46 ± 0.13%
percentage of EdU-negative (MCF7; [8]): 23.6 ± 0.38%
percentage of EdU-negative (MCF7; protein concentration 0.125 µM): 27.2 ± 2.1%
